From US11629364B2, “Methods for synthesizing anticoagulant polysaccharides” (OPTIMVIA, LLC, priority 2019, dated 2023) come the findings set out here.

The labels stand for the following.
B1: SEQ ID NO: 18: engineered aryl sulfate-dependent 6OST enzyme, mutant of isoform 1 of the mouse 6OST enzyme (protein)
chain: MKYYFPVRELERSLRFDMKGDDVIVFLHIGHTGGTTFGRHLVQNVRLEVPCDCRPGQKKCTCYRPNRRETWLFSRFSTGWSCGTNADWTELTNCVPGVLDRRDPAGLRSPRKFYYITLLRDPVSRYLGGWRHHQRGGTNKTSLHMCDGRTPTPEELPPCYEGTDWSGCTLQEFMDCPYNLANNRQVRMLADLSLVGCYNLSFIPESKRAQLLLESAKKNLRGMAFFGLTEFQRKTQYLFERTFNLKFIRPFMQYNSTRAGGVEVDEDTIRHIEELNDLDMQLYDYAKDLFQQRYQYKRQLERREQRLRNREE
modifications: Amino acid sequence encoding for engineered arylsulfate-dependent 6-O-sulfotransferase variant 1
notes: engineered aryl sulfate-dependent 6OST enzyme, mutant of isoform 1 of the mouse 6OST enzyme
B2: SEQ ID NO: 20: engineered aryl sulfate-dependent 6OST enzyme, mutant of isoform 1 of the mouse 6OST enzyme (protein)
chain: MKYYFPVRELERSLRFDMKGDDVIVFLHIGHTGGTTFGRHLVQNVRLEVPCDCRPGQKKCTCYRPNRRETWLFSRFSTGWSCGTRADWTELTNCVPGVLDRRDPAGLRSPRKFYYITLLRDPVSRYLSHWRHTQRGGANKTGLHMCDGRTPTPEELPPCYEGTDWSGCTLQEFMDCPYNLGNNRQVRMLADLSLVGCYNLSFIPESKRAQLLLESAKKNLRGMAFFGLTEFQRKTQYLFERTFNLKFIRPFMQYNSTRAGGVEVDEDTIRHIEELNDLDMQLYDYAKDLFQQRYQYKRQLERREQRLRNREE
modifications: Amino acid sequence encoding for engineered arylsulfate-dependent 6-O-sulfotransferase variant 2
notes: as for B1
B3: SEQ ID NO: 22: engineered aryl sulfate-dependent 6OST enzyme, mutant of isoform 1 of the mouse 6OST enzyme (protein)
chain: MKYYFPVRELERSLRFDMKGDDVIVFLHIGHTGGTTFGRHLVQNVRLEVPCDCRPGQKKCTCYRPNRRETWLFSRFSTGWSCGSHADWTELTNCVPGVLDRRDPAGLRSPRKFYYITLLRDPVSRYLSGWRHHQRGGANKTSLHMCDGRTPTPEELPPCYEGTDWSGCTLQEFMDCPYNLGNNRQVRMLADLSLVGCYNLSFIPESKRAQLLLESAKKNLRGMAFFGLTEFQRKTQYLFERTFNLKFIRPFMQYNSTRAGGVEVDEDTIRHIEELNDLDMQLYDYAKDLFQQRYQYKRQLERREQRLRNREE
modifications: Amino acid sequence encoding for engineered arylsulfate-dependent 6-O-sulfotransferase variant 3
notes: as for B1
B4: SEQ ID NO: 46: mutant of residues 67-377 of the pig 6OST enzyme, SEQ ID NO: 20 mutations (protein)
chain: MKYYFPVRELERSLHFDMKGDDVIVFLHIGHTGGTTFGRHLVQNVRLEVPCDCRPGQKKCTCYRPNRRETWLFSRFSTGWSCGTRADWTELTNCVPGVLDRRDPAALRTPRKFYYITLLRDPVSRYLSHWRHTQRGGANKTGLHMCDGRTPTPEELPPCYEGTDWSGCTLQEFMDCPYNLGNNRQVRMLADLSLVGCYNLSFIPEGKRSQLLLESAKKNLRGMAFFGLTEFQRKTQYLFERTFNLKFIRPFMQYNSTRAGGVEVGEDTIRRIEELNDLDMQLYDYARDLFQQRYQYKRQLERRQQRLRSREE
modifications: Amino acid sequence encoding for engineered arylsulfate-dependent 6-O-sulfotransferase variant 7
B5: SEQ ID NO: 47: mutant of residues 67-377 of the pig 6OST enzyme, SEQ ID NO: 22 mutations (protein)
chain: MKYYFPVRELERSLHFDMKGDDVIVFLHIGHTGGTTFGRHLVQNVRLEVPCDCRPGQKKCTCYRPNRRETWLFSRFSTGWSCGSHADWTELTNCVPGVLDRRDPAALRTPRKFYYITLLRDPVSRYLSGWRHHQRGGANKTSLHMCDGRTPTPEELPPCYEGTDWSGCTLQEFMDCPYNLGNNRQVRMLADLSLVGCYNLSFIPEGKRSQLLLESAKKNLRGMAFFGLTEFQRKTQYLFERTFNLKFIRPFMQYNSTRAGGVEVGEDTIRRIEELNDLDMQLYDYARDLFQQRYQYKRQLERRQQRLRSREE
modifications: Amino acid sequence encoding for engineered arylsulfate-dependent 6-O-sulfotransferase variant 8
B6: SEQ ID NO: 48: mutant of the full-length pig 6OST enzyme, SEQ ID NO: 18 mutations (protein)
chain: MRRRRAGSRTMVERASKFVLVVAGSACFMLILYQYAGPGLSLGAPGGRAPPDDLDLFPTPDPHYEKKYYFPVRELERSLHFDMKGDDVIVFLHIGHTGGTTFGRHLVQNVRLEVPCDCRPGQKKCTCYRPNRRETWLFSRFSTGWSCGTNADWTELTNCVPGVLDRRDPAALRTPRKFYYITLLRDPVSRYLGGWRHHQRGGTNKTSLHMCDGRTPTPEELPPCYEGTDWSGCTLQEFMDCPYNLANNRQVRMLADLSLVGCYNLSFIPEGKRSQLLLESAKKNLRGMAFFGLTEFQRKTQYLFERTFNLKFIRPFMQYNSTRAGGVEVGEDTIRRIEELNDLDMQLYDYARDLFQQRYQYKRQLERRQQRLRSREERLLHRAKEAPPRGDTEEPGRVPTEDYMSHIIEKW
modifications: Amino acid sequence encoding for engineered arylsulfate-dependent 6-O-sulfotransferase variant 9
B7: SEQ ID NO: 50: mutant of the full-length pig 6OST enzyme, SEQ ID NO: 22 mutations (protein)
chain: MRRRRAGSRTMVERASKFVLVVAGSACFMLILYQYAGPGLSLGAPGGRAPPDDLDLFPTPDPHYEKKYYFPVRELERSLHFDMKGDDVIVFLHIGHTGGTTFGRHLVQNVRLEVPCDCRPGQKKCTCYRPNRRETWLFSRFSTGWSCGSHADWTELTNCVPGVLDRRDPAALRTPRKFYYITLLRDPVSRYLSGWRHHQRGGANKTSLHMCDGRTPTPEELPPCYEGTDWSGCTLQEFMDCPYNLGNNRQVRMLADLSLVGCYNLSFIPEGKRSQLLLESAKKNLRGMAFFGLTEFQRKTQYLFERTFNLKFIRPFMQYNSTRAGGVEVGEDTIRRIEELNDLDMQLYDYARDLFQQRYQYKRQLERRQQRLRSREERLLHRAKEAPPRGDTEEPGRVPTEDYMSHIIEKW
modifications: Amino acid sequence encoding for engineered arylsulfate-dependent 6-O-sulfotransferase variant 11
B8: SEQ ID NO: 49: mutant of the full-length pig 6OST enzyme, SEQ ID NO: 20 mutations (protein)
chain: MRRRRAGSRTMVERASKFVLVVAGSACFMLILYQYAGPGLSLGAPGGRAPPDDLDLFPTPDPHYEKKYYFPVRELERSLHFDMKGDDVIVFLHIGHTGGTTFGRHLVQNVRLEVPCDCRPGQKKCTCYRPNRRETWLFSRFSTGWSCGTRADWTELTNCVPGVLDRRDPAALRTPRKFYYITLLRDPVSRYLSHWRHTQRGGANKTGLHMCDGRTPTPEELPPCYEGTDWSGCTLQEFMDCPYNLGNNRQVRMLADLSLVGCYNLSFIPEGKRSQLLLESAKKNLRGMAFFGLTEFQRKTQYLFERTFNLKFIRPFMQYNSTRAGGVEVGEDTIRRIEELNDLDMQLYDYARDLFQQRYQYKRQLERRQQRLRSREERLLHRAKEAPPRGDTEEPGRVPTEDYMSHIIEKW
modifications: Amino acid sequence encoding for engineered arylsulfate-dependent 6-O-sulfotransferase variant 10
B9: SEQ ID NO: 45: mutant of residues 67-377 of the pig 6OST enzyme, SEQ ID NO: 18 mutations (protein)
chain: MKYYFPVRELERSLHFDMKGDDVIVFLHIGHTGGTTFGRHLVQNVRLEVPCDCRPGQKKCTCYRPNRRETWLFSRFSTGWSCGTNADWTELTNCVPGVLDRRDPAALRTPRKFYYITLLRDPVSRYLGGWRHHQRGGTNKTSLHMCDGRTPTPEELPPCYEGTDWSGCTLQEFMDCPYNLANNRQVRMLADLSLVGCYNLSFIPEGKRSQLLLESAKKNLRGMAFFGLTEFQRKTQYLFERTFNLKFIRPFMQYNSTRAGGVEVGEDTIRRIEELNDLDMQLYDYARDLFQQRYQYKRQLERRQQRLRSREE
modifications: Amino acid sequence encoding for engineered arylsulfate-dependent 6-O-sulfotransferase variant 6

A short description of one data set: 6OST activity: 6-O sulfated products detected by LCMS after lyase digestion. The data set is classed as biochemical. Particulars: NCS or PNS as sulfo donor; D0S6 and D2S6 disaccharides. As to the method:
A study was conducted in accordance with embodiments of the present disclosure to confirm 6OST activity of enzymes comprising the amino acid sequence of SEQ ID NO: 18, SEQ ID NO: 20, or SEQ ID NO: 22 by detecting the presence of 6-O sulfated polysaccharide products as a result of their sulfotransfer reaction, using a similar LCMS procedure as in Example 3, except that the sulfo acceptor polysaccharide was prepared by chemically 6-O desulfating commercially available heparin (CAS code: 9041-08-1, available from Millipore Sigma), according to the procedure provided by Kariya, Y., et al., (2000) J. Biol. Chem. 275 (34):25949-25958).
B1: the “6OST sulfotransferase activity by sulfo group donor” value was “active when NCS was the sulfo group donor”.
Same read-out and setting: for B2 the value was “active when NCS was the sulfo group donor”.
As to B3, the “6OST sulfotransferase activity by sulfo group donor” value is on record as “active when PNS was the sulfo group donor”.

The same data set, now with this note: comparing peak area percentages of D0S6 and D2S6 disaccharides.
As to B3, the “relative 6OST activity among engineered enzymes” value is “the most active”.

The same data set, now with this note: procedures of Example 4; expected.
For B4, the “6OST activity: N,2,6-HS products by MS” value was “confirm the presence of N,2,6-HS products”.
The same measure, in the same setting: for B5 the value was “confirm the presence of N,2,6-HS products”; for B6, “confirm the presence of N,2,6-HS products”; for B7, “confirm the presence of N,2,6-HS products”.
On the same count and under the same terms, for B8 the value was “confirm the presence of N,2,6-HS products”; for B9, “confirm the presence of N,2,6-HS products”.
